Numbering of substitutions follows the chain as printed. Names and notes keep the numbering of the source.
How the values were obtained:
[1] = biological target: T1, LAETG motif-bearing substrate (not fully specified)
T1 chain: LAETG

[2] = biological target: T2, LPETG (SEQ ID NO: 4) substrate (not fully specified)
T2 chain: LPETG

GGG-COOH = biological target: T3, GGG-COOH
T3 chain: GGG

[3] = biological target: LPESG motif-bearing substrate

B1: sortase 2A.3.5 (protein)
chain: QAKPQIPKDKSKVAGYIEIPDADIKEPVYPGPATREQLNRGVSFAEENESLDDQNISIAGHTFIDRPNYQFTNLKAAKKGSMVYFKVGNETRKYKMTSIRNVRPTAVEILDEQKGKDKQLTLFTCDDYNEETGVWETRKIFVATEVK
With B1 the Km, LxExG (uM); column 2A.3.5/2A [1] was 7160 µM and the Km, LxExG (uM); column 2A.3.5/wt [2] was 4110 µM.

B2: sortase 2A.6A (protein)
chain: B1 chain with A45H, K79V, I109V, F123V
Work on B2 yielded a Km, GGG (uM); column 2A.6A/2A (GGG-COOH) of 1040 µM, a Km, LxExG (uM); column 2A.6A/2A [1] of 608 µM and a Km, LxExG (uM); column 2A.6A/wt [2] of 3290 µM.

B3: sortase 4S.6C (protein)
chain: B1 chain with N39D, A45V, A59T, F63A, K75R, R103K, I109V, F123V, E130F
Protein B3 has a Km, GGG (uM); column 4S.6C/4S (GGG-COOH) of 36000 µM, a Km, LxExG (uM); column 4S.6C/4S [3] of 156 µM and a Km, LxExG (uM); column 4S.6C/wt [2] of 16.1 µM.

B4: sortase 4S.6B (protein)
chain: B1 chain with N39D, A45V, A59S, F63A, K75P, R103K, I109V, F123V, E130P
Protein B4 has a Km, GGG (uM); column 4S.6B/4S (GGG-COOH) of 15700 µM, a Km, LxExG (uM); column 4S.6B/4S [3] of 312 µM and a Km, LxExG (uM); column 4S.6B/wt [2] of 238 µM.

B5: sortase 4S.5 (protein)
chain: B1 chain with N39D, A45V, A59T, F63A, K75R, R103K, I109V, F123V
In the case of B5, the Km, GGG (uM); column 4S.5/4S (GGG-COOH) is reported as 26700 µM, the Km, LxExG (uM); column 4S.5/4S [3] is reported as 76 µM and the Km, LxExG (uM); column 4S.5/wt [2] is reported as 12.2 µM.

B6: sortase 2A.4 (protein)
chain: B1 chain with A45H, F123V
Work on B6 yielded a Km, LxExG (uM); column 2A.4/2A [1] of 3250 µM and a Km, LxExG (uM); column 2A.4/wt [2] of 11700 µM.

B7: sortase 2A.6C (protein)
chain: B1 chain with A45H, K79P, K93I, N101K, I109V, F123V
For B7, the Km, GGG (uM); column 2A.6C/2A (GGG-COOH) was 642 µM, the Km, LxExG (uM); column 2A.6C/2A [1] was 343 µM and the Km, LxExG (uM); column 2A.6C/wt [2] was 1980 µM.

B8: sortase 4S.6A (protein)
chain: B1 chain with N39D, A45V, A59T, F63A, K75G, R103K, I109V, F123V, E130V
For B8, the Km, GGG (uM); column 4S.6A/4S (GGG-COOH) was 4950 µM, the Km, LxExG (uM); column 4S.6A/4S [3] was 102 µM and the Km, LxExG (uM); column 4S.6A/wt [2] was 1290 µM.

B9: sortase 4S.3.5 (protein)
chain: B1 chain with A45T, A59T, R103K, I109V, F123V
Protein B9 has a Km, LxExG (uM); column 4S.3.5/4S [3] of 7310 µM.

B10: sortase 4S.4 (protein)
chain: B1 chain with A45V, A59T, F63S, R103K, I109V, F123V
B10 was tested, and the Km, LxExG (uM); column 4S.4/4S [3] was 1410 µM and the Km, LxExG (uM); column 4S.4/wt [2] was 339 µM.

B11: sortase 2A.5 (protein)
chain: B1 chain with R40H, A45H, K79I, I109V, F123V
For B11, the Km, GGG (uM); column 2A.5/2A (GGG-COOH) was 2810 µM, the Km, LxExG (uM); column 2A.5/2A [1] was 433 µM and the Km, LxExG (uM); column 2A.5/wt [2] was 4900 µM.

B12: sortase 2A.6B (protein)
chain: B1 chain with R40K, A45H, K79V, N101K, I109V, F123V
B12 showed a Km, GGG (uM); column 2A.6B/2A (GGG-COOH) of 642 µM and a Km, LxExG (uM); column 2A.6B/2A [1] of 310 µM.

B13: P94S/D160N/K196T (protein)
chain: MQAKPQIPKDKSKVAGYIEIPDADIKEPVYPGPATSEQLNRGVSFAEENESLDDQNISIAGHTFIDRPNYQFTNLKAAKKGSMVYFKVGNETRKYKMTSIRNVKPTDVEVLDEQKGKDKQLTLITCDDYNEKTGVWETRKIFVATEVKLEHHHHHH
With B13 the Km GGG-COOH (GGG-COOH) was 1830 ± 330 µM and the Km LPETG [2] was 560 µM.

B14: wild type S. aureus sortase A (truncated, His tagged) (protein)
chain: B13 chain with S36P, N102D, T138K
Work on B14 yielded a Km GGG-COOH (GGG-COOH) of 140 µM, a Km, GGG (uM); column wt/wt (GGG-COOH) of 291 µM and a Km LPETG [2] of 7600 µM. For the same protein, the Km, LxExG (uM); column wt/wt [2] was 5180 µM.

B15: P94S/D165A (clone 4.3) (protein)
chain: B13 chain with N102D, D107A, T138K
Work on B15 yielded a Km GGG-COOH (GGG-COOH) of 1700 ± 400 µM and a Km LPETG [2] of 1100 µM.

B16: D160N/K190E/K196T (clone 4.2) (protein)
chain: B13 chain with S36P, K132E
Protein B16 has a Km GGG-COOH (GGG-COOH) of 1200 ± 200 µM and a Km LPETG [2] of 1600 µM.

B17: P94S/D160N/D165A (protein)
chain: B13 chain with D107A, T138K
B17 was tested, and the Km GGG-COOH (GGG-COOH) was 1750 ± 250 µM and the Km LPETG [2] was 510 µM.

B18: P94S/D160N/D165A/K196T (protein)
chain: B13 chain with D107A
For B18, the Km GGG-COOH (GGG-COOH) was 4800 ± 700 µM, the Km LPETG [2] was 170 µM and the “LPETG recognition (Km LPETG) against wild type SrtA” value [2] was 45-fold improved LPETG (SEQ ID NO: 4) recognition.

B19: srtA D165A (protein)
chain: B13 chain with S36P, N102D, D107A, T138K
With B19 the Km GGG-COOH (GGG-COOH) was 1000 ± 480 µM and the Km LPETG [2] was 3600 µM.

B20: srtA D160N (protein)
chain: B13 chain with S36P, T138K
Protein B20 has a Km GGG-COOH (GGG-COOH) of 330 µM and a Km LPETG [2] of 3700 µM.

B21: srtA K196T (protein)
chain: B13 chain with S36P, N102D
Work on B21 yielded a Km GGG-COOH (GGG-COOH) of 200 µM and a Km LPETG [2] of 3300 µM.

B22: srtA P94S (protein)
chain: B13 chain with N102D, T138K
For B22, the Km GGG-COOH (GGG-COOH) was 650 µM and the Km LPETG [2] was 2500 µM.

B23: P94R/D160N/D165A/K190E/K196T pentamutant sortase A (protein)
chain: B13 chain with S36R, D107A, K132E
In the case of B23, the “Km GGG against the tetramutant” value (GGG-COOH) is reported as “the Km GGG of this mutant improved by 1.8-fold”, the “Km GGG against wild type srtA” value (GGG-COOH) is reported as “a 20-fold higher Km GGG” and the Km GGG-COOH (GGG-COOH) is reported as 2900 ± 200 µM. It also gave a Km, GGG (uM); column 5mut/wt (GGG-COOH) of 2990 µM, a Km, LxExG (uM); column 5mut/2A [1] of 6160 µM and a Km, LxExG (uM); column 5mut/4S [3] of 672 µM. For the same protein, the “KM LPETG against the tetramutant” value [2] was “the kcat and KM LPETG were not altered by more than a factor of 1.3-fold”, the Km LPETG [2] was 230 µM and the Km, LxExG (uM); column 5mut/wt [2] was 208 µM.
